Laboratory results taken from patent publication US20250074980A1 (BRIGHAM AND WOMEN S HOSPITAL, published 2025).

T1: CEACAM6 on transfected HeLa cells (human, UniProt P40199 35-320)
T1 construct: whole, on cells; also called HeLa-CEACAM6; HeLa C6
T1 sequence (looked up): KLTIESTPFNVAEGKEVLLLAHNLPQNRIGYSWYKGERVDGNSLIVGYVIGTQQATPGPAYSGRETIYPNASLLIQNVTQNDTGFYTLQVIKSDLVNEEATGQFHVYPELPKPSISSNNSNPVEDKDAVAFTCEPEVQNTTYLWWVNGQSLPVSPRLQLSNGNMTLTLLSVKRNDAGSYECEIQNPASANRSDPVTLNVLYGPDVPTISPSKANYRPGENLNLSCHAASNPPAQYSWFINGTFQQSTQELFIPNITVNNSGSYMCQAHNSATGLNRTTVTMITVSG

T2: GST-CEACAM1 (human, UniProt P13688 35-141, limits assumed)
T2 construct: also called human CEACAM1-GST protein
T2 sequence: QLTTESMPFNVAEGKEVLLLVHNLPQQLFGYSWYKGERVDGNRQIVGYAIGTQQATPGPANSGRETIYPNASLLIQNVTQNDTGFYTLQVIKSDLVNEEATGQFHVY

T3: His-tagged CEACAM1 (human, UniProt P13688 35-428)
T3 construct: 45 kDa SPR analyte; also called CEACAM1-HIS; CEACAM1 analyte
T3 sequence: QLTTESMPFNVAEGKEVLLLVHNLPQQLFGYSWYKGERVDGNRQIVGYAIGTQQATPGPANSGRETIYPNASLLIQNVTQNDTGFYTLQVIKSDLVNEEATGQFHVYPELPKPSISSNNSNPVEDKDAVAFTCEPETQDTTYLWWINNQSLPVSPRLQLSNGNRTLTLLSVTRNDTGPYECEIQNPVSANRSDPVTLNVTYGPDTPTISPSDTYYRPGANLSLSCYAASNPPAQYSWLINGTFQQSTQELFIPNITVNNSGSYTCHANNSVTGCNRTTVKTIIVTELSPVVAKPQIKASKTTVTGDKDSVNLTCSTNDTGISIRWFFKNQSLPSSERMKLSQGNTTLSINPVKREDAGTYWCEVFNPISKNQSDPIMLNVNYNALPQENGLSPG


Key:
[1] = biological target: T1, CEACAM6 on transfected HeLa cells; assay: flow cytometry titration, HeLa-CEACAM6 transfectants, anti-human IgG4 FITC
Method: FIGS. 31A and 31B show flow cytometry analyses of stable HeLa CEACAM1 (HeLa C1) transfectant, stable HeLa CEACAM3 transfectant (HeLa C3), stable HeLa CEACAM5 transfectant (HeLa C5), stable HeLa CEACAM6 transfectant (HeLa C6), and stable HeLa CEACAM8 transfectant (HeLa C8). FIG. 31A: 5×10\hat{ }4 indicated HeLa transfectants were washed with staining buffer and CP08H03/Vκ8 S29A (labeled “CP08”, left) or CEACAM1 antibody CM-24 was incubated at room temperature for 30 min, washed twice with staining buffer, and stained for anti-human IgG4 Fluorescein isothiocyanate (FITC) conjugated secondary antibody at room temperature for 20 min. Fluorescence intensities were determined by flow cytometry. Live cells were determined by 4′,6-diamidino-2-phenylindole (DAPI) staining as shown on the y-axis. Staining with the respective CEACAM1 antibody is shown on the x-axis. […]
The cervical adenocarcinoma cell line HeLa (ATCC No CCL-2) as well as transfected cell lines HeLaCEACAM1, HeLaCEACAM3, HeLaCEACAM5, HeLaCEACAM6 and HeLaCEACAM8 used for flow cytometry experiments were cultured at 37° C., 5.0% CO₂ in Dulbecco's modified Eagle's medium supplemented with 10% fetal bovine serum, penicillin (100 U/ml) and dihydrostreptomycin (100 μg/ml). […] Data were acquired with a Cytoflex flow cytometer (Invitrogen) and analyzed with FlowJo software (TreeStar, V7.6.5 for Windows).

GST-CEACAM1 = biological target: T2, GST-CEACAM1; assay: competition ELISA: binding of human CEACAM1-GST (37.5 µg/ml) to human CEACAM1 IgV domain tagless protein (1 µg/ml), anti-GST detection, OD 450 nm
Method: The ability of the CEACAM1 antibodies to block CEACAM1 homodimerization was tested. […] In addition, IgG4 antibody was used as a control (0-1000 nM). Goat polyclonal anti-GST-HSP antibody from Abcam (1:2000) was used and assays were developed by addition of TMB solution (Life technologies). OD values were read at 450 nm on a plate reader. Data was plotted in a Graphpad and best-fit IC-50 values were determined.

His-tagged CEACAM1 = biological target: T3, His-tagged CEACAM1; assay: SPR multi-cycle
Procedure, shortened: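 Surface plasmon resonance multi-cycle kinetics on a Biacore T200 at 25° C in HBS-P+ (pH 7.4). Purified antibody at 1 μg/ml was captured on a Series S Protein A chip to ~75 RU, with His-tagged CEACAM1 analyte in 2-fold dilutions from 200 to 3.125 nM or 100 to 1.5625 nM at 80 μl/min. Association was 50 or 150 seconds and dissociation 100 seconds, with glycine-HCl pH 1.5 regeneration. Kon, koff, Kd and relative KD come from these sensorgrams.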

binding result [1] | IC50 (GST-CEACAM1) | Kd (His-tagged CEACAM1) | koff (His-tagged CEACAM1) | kon (His-tagged CEACAM1) | relative KD (His-tagged CEACAM1) | Binder
no binding (tested: 100 ug/ml) | 2.11 nM | – | – | – | – | CP08H03/Vκ8 S29A (antibody, IgG4, V domains shown, IgG4 (S241P), kappa; also called CP08_H03/Parent VL; CP08_H03/Parental) VH: EVQLLESGGGLVQPGGSLRLSCAASGFIFSSHGMSWVRQAPGKGLEWVATISSGGTYTYYPDSVKGRFTISRDNSKNTLYLQMNSLKAEDTAMYYCARHDFDYFPYWFAHWGQGTLVTVSS VL: EIVLTQSPATLSLSPGERATLSCRANSAVSYMYWYQQKPGQAPRPWIYLTSNRATGVPARFSGSGSGTDYTLTISSLEPEDFAVYYCQQWSSNPPTFGQGTKLEIK
– | – | 105 nM | 0.0258 s⁻¹ | 246000 M⁻¹ s⁻¹ | 1 | chimeric antibody VH0/Vκ0 (antibody, IgG4, V domains shown, IgG4 (S241P), kappa; also called VH0/Vκ0 (control); Chimeric VH0/Vκ0) VH: EVQLVESGGDLVKPGGSLKLACAASGFIFSSHGMSWVRQTPDKRLEWVATISSGGTYTYYPDSVKGRFTISRDNDKNTLYLQMNSLKSEDTAMYYCARHDFDYDAAWFAYWGQGTLVTVSS VL: QIVLTQSPALMSASPGVKVTMTCSANSSVSYMYWYRQKPRSSPKPWIYLTSNLASGVPARFSGSGSGTSYSLTISSMEAEDAATYYCQQWSSNPPTFGSGTKLEIK
